Measured values published in the supplement of paper PMC9112550, “Optimization of the antimicrobial peptide Bac7 by deep mutational scanning” (BMC Biology, 2022).

The sequences below were run on Escherichia coli TOP10 (assay: shrunken log2 fold change of peptide-encoding DNA abundance (4.5 h post-induction vs induction); higher = less antimicrobial activity (less host growth inhibition)). Settings: time post-induction: 4.5 h; library: site-saturation at positions 5, 18, 19, 20.
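Note: peptides expressed intracellularly from a pBAD plasmid library in pooled LB shake-flask culture, induced with 0.3% L-arabinose, DNA abundance read by NGS, three biological replicates, DESeq2 with apeglm shrinkage.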

Compared with RRIRSRPPRLPRPRPRPQIDPRP, RRIRMRPPRLPRPRPRPSKHPRP is higher in “shrunken log2 fold change” value: -0.0914 for the first, 0.159 for the second.

RRIRVRPPRLPRPRPRPGKEPRP and RRIRLRPPRLPRPRPRPCRIPRP are within 0.2 log units of each other in “shrunken log2 fold change” value: -0.0126 for the first, -0.0656 for the second.

First: RRIRNRPPRLPRPRPRPDLPPRP
Second: RRIRMRPPRLPRPRPRPLCAPRP
The “shrunken log2 fold change” value of the first is lower: -0.221 for the first, 1.24 for the second.

First: RRIRYRPPRLPRPRPRPPAAPRP
Second: RRIRGRPPRLPRPRPRPYEEPRP
The “shrunken log2 fold change” value of the first is higher: 0.454 for the first, 0.106 for the second.

First: RRIRLRPPRLPRPRPRPTSKPRP
Second: RRIRKRPPRLPRPRPRPAPPPRP
The “shrunken log2 fold change” value of the first is lower: -0.253 for the first, 1.04 for the second.

Compared with RRIRWRPPRLPRPRPRPVEAPRP, RRIRLRPPRLPRPRPRPDWSPRP is lower in “shrunken log2 fold change” value: 0.249 for the first, -0.124 for the second.

First: RRIRVRPPRLPRPRPRPKTTPRP
Second: RRIRCRPPRLPRPRPRPYQVPRP
The “shrunken log2 fold change” value of the first is higher: -0.0198 for the first, -0.829 for the second.

RRIRFRPPRLPRPRPRPILPPRP and RRIRGRPPRLPRPRPRPHTFPRP are within 0.2 log units of each other in “shrunken log2 fold change” value: -0.188 for the first, -0.0226 for the second.

Compared with RRIRQRPPRLPRPRPRPQQWPRP, RRIRGRPPRLPRPRPRPLWAPRP is higher in “shrunken log2 fold change” value: 0.201 for the first, 0.681 for the second.

RRIRERPPRLPRPRPRPYQHPRP and RRIRSRPPRLPRPRPRPWIVPRP are within 0.2 log units of each other in “shrunken log2 fold change” value: -0.106 for the first, -0.127 for the second.

RRIRVRPPRLPRPRPRPRSPPRP and RRIRLRPPRLPRPRPRPGSGPRP are within 0.2 log units of each other in “shrunken log2 fold change” value: 0.342 for the first, 0.337 for the second.

Going from RRIRDRPPRLPRPRPRPLADPRP to RRIRDRPPRLPRPRPRPCECPRP, the “shrunken log2 fold change” value falls from 0.0597 to -0.201.

RRIRIRPPRLPRPRPRPMQTPRP and RRIRDRPPRLPRPRPRPRHMPRP are within 0.2 log units of each other in “shrunken log2 fold change” value: -0.0288 for the first, 0.0599 for the second.

First: RRIRPRPPRLPRPRPRPWSLPRP
Second: RRIRPRPPRLPRPRPRPSASPRP
The “shrunken log2 fold change” value of the first is lower: -0.0559 for the first, 2.33 for the second.

First: RRIRPRPPRLPRPRPRPCMNPRP
Second: RRIRDRPPRLPRPRPRPQWCPRP
The “shrunken log2 fold change” value of the first is lower: -0.184 for the first, 0.0917 for the second.

RRIRMRPPRLPRPRPRPRYMPRP and RRIRTRPPRLPRPRPRPYTKPRP are within 0.2 log units of each other in “shrunken log2 fold change” value: -0.212 for the first, -0.248 for the second.

RRIRDRPPRLPRPRPRPVPYPRP and RRIRQRPPRLPRPRPRPMMHPRP are within 0.2 log units of each other in “shrunken log2 fold change” value: -0.244 for the first, -0.252 for the second.

RRIRLRPPRLPRPRPRPLWAPRP and RRIRTRPPRLPRPRPRPVQIPRP are within 0.2 log units of each other in “shrunken log2 fold change” value: 0.129 for the first, -0.0381 for the second.

First: RRIRVRPPRLPRPRPRPVDKPRP
Second: RRIRARPPRLPRPRPRPNPWPRP
The “shrunken log2 fold change” value of the first is lower: -0.278 for the first, 0.222 for the second.

Compared with RRIRVRPPRLPRPRPRPMVRPRP, RRIRCRPPRLPRPRPRPYSMPRP is lower in “shrunken log2 fold change” value: 0.00709 for the first, -0.905 for the second.

Going from RRIRGRPPRLPRPRPRPPYRPRP to RRIRYRPPRLPRPRPRPVNVPRP, the “shrunken log2 fold change” value falls from 0.388 to -0.0979.

RRIRKRPPRLPRPRPRPGYIPRP and RRIRYRPPRLPRPRPRPAGPPRP are within 0.2 log units of each other in “shrunken log2 fold change” value: 0.0313 for the first, -0.0366 for the second.

Compared with RRIRQRPPRLPRPRPRPSAAPRP, RRIRIRPPRLPRPRPRPYDEPRP is lower in “shrunken log2 fold change” value: 0.486 for the first, -0.338 for the second.

RRIRNRPPRLPRPRPRPEWDPRP and RRIRWRPPRLPRPRPRPAQIPRP are within 0.2 log units of each other in “shrunken log2 fold change” value: -0.00515 for the first, 0.0333 for the second.

RRIRVRPPRLPRPRPRPSFFPRP and RRIRVRPPRLPRPRPRPFVQPRP are within 0.2 log units of each other in “shrunken log2 fold change” value: -0.2 for the first, -0.0696 for the second.

RRIRYRPPRLPRPRPRPKLVPRP and RRIRTRPPRLPRPRPRPWIEPRP are within 0.2 log units of each other in “shrunken log2 fold change” value: -0.067 for the first, -0.042 for the second.

Going from RRIRVRPPRLPRPRPRPWEGPRP to RRIRYRPPRLPRPRPRPVAMPRP, the “shrunken log2 fold change” value falls from 0.0112 to -0.464.

RRIRNRPPRLPRPRPRPLMCPRP and RRIRVRPPRLPRPRPRPCYSPRP are within 0.2 log units of each other in “shrunken log2 fold change” value: 0.141 for the first, 0.00378 for the second.

Going from RRIRLRPPRLPRPRPRPYKVPRP to RRIRARPPRLPRPRPRPMWTPRP, the “shrunken log2 fold change” value rises from -0.756 to 0.0207.

RRIRCRPPRLPRPRPRPMRYPRP and RRIRTRPPRLPRPRPRPFAHPRP are within 0.2 log units of each other in “shrunken log2 fold change” value: 0.0209 for the first, -0.039 for the second.

Compared with RRIRERPPRLPRPRPRPYFTPRP, RRIRARPPRLPRPRPRPYMFPRP is higher in “shrunken log2 fold change” value: -0.971 for the first, -0.262 for the second.

Going from RRIRCRPPRLPRPRPRPWKKPRP to RRIRYRPPRLPRPRPRPYYMPRP, the “shrunken log2 fold change” value falls from -0.0238 to -1.06.

Going from RRIRARPPRLPRPRPRPVSPPRP to RRIRMRPPRLPRPRPRPISHPRP, the “shrunken log2 fold change” value falls from 0.664 to -0.018.

RRIRLRPPRLPRPRPRPHALPRP and RRIRSRPPRLPRPRPRPQMHPRP are within 0.2 log units of each other in “shrunken log2 fold change” value: -0.396 for the first, -0.351 for the second.

Going from RRIRQRPPRLPRPRPRPPMQPRP to RRIRWRPPRLPRPRPRPWYYPRP, the “shrunken log2 fold change” value falls from -0.055 to -0.321.

Compared with RRIRYRPPRLPRPRPRPSRPPRP, RRIRERPPRLPRPRPRPYIRPRP is lower in “shrunken log2 fold change” value: -0.084 for the first, -1.16 for the second.

Going from RRIRQRPPRLPRPRPRPMYDPRP to RRIRFRPPRLPRPRPRPYKNPRP, the “shrunken log2 fold change” value falls from -0.0385 to -0.957.

Going from RRIRHRPPRLPRPRPRPIKMPRP to RRIRKRPPRLPRPRPRPMDEPRP, the “shrunken log2 fold change” value rises from -0.0865 to 0.966.

Compared with RRIRHRPPRLPRPRPRPRYVPRP, RRIRFRPPRLPRPRPRPDYDPRP is higher in “shrunken log2 fold change” value: -0.585 for the first, -0.0802 for the second.

RRIRQRPPRLPRPRPRPVVNPRP and RRIRERPPRLPRPRPRPGVYPRP are within 0.2 log units of each other in “shrunken log2 fold change” value: -0.126 for the first, -0.049 for the second.

RRIRERPPRLPRPRPRPMWMPRP and RRIRERPPRLPRPRPRPDCWPRP are within 0.2 log units of each other in “shrunken log2 fold change” value: -0.0314 for the first, -0.0875 for the second.

First: RRIRDRPPRLPRPRPRPTHMPRP
Second: RRIRRRPPRLPRPRPRPISQPRP
The “shrunken log2 fold change” value of the first is higher: 0.381 for the first, -0.395 for the second.

RRIRCRPPRLPRPRPRPQTLPRP and RRIRDRPPRLPRPRPRPIRMPRP are within 0.2 log units of each other in “shrunken log2 fold change” value: -0.148 for the first, -0.0588 for the second.

Going from RRIRSRPPRLPRPRPRPYNPPRP to RRIRDRPPRLPRPRPRPHPPPRP, the “shrunken log2 fold change” value rises from -0.953 to 0.402.

First: RRIRYRPPRLPRPRPRPDFHPRP
Second: RRIRWRPPRLPRPRPRPEASPRP
The “shrunken log2 fold change” value of the first is lower: -0.695 for the first, 0.551 for the second.

First: RRIRERPPRLPRPRPRPKVGPRP
Second: RRIRRRPPRLPRPRPRPWGNPRP
The “shrunken log2 fold change” value of the first is lower: 0.0685 for the first, 0.352 for the second.

First: RRIRCRPPRLPRPRPRPVGGPRP
Second: RRIRNRPPRLPRPRPRPVTMPRP
The “shrunken log2 fold change” value of the first is higher: 0.273 for the first, -0.514 for the second.

RRIRGRPPRLPRPRPRPAHSPRP and RRIRKRPPRLPRPRPRPSNRPRP are within 0.2 log units of each other in “shrunken log2 fold change” value: 0.0755 for the first, -0.00152 for the second.

RRIRTRPPRLPRPRPRPQQCPRP and RRIRDRPPRLPRPRPRPISRPRP are within 0.2 log units of each other in “shrunken log2 fold change” value: -0.0115 for the first, -0.032 for the second.

Compared with RRIRQRPPRLPRPRPRPMLCPRP, RRIRPRPPRLPRPRPRPVVQPRP is higher in “shrunken log2 fold change” value: -0.00319 for the first, 0.28 for the second.

RRIRTRPPRLPRPRPRPRNAPRP and RRIRVRPPRLPRPRPRPFRRPRP are within 0.2 log units of each other in “shrunken log2 fold change” value: 0.0522 for the first, -0.101 for the second.

RRIRIRPPRLPRPRPRPILPPRP and RRIRMRPPRLPRPRPRPWTFPRP are within 0.2 log units of each other in “shrunken log2 fold change” value: 0.0798 for the first, 0.055 for the second.

Compared with RRIRSRPPRLPRPRPRPAQYPRP, RRIRSRPPRLPRPRPRPSYAPRP is lower in “shrunken log2 fold change” value: 0.0401 for the first, -0.835 for the second.

Going from RRIRGRPPRLPRPRPRPMYMPRP to RRIRNRPPRLPRPRPRPDASPRP, the “shrunken log2 fold change” value rises from -0.169 to 0.14.

Going from RRIRFRPPRLPRPRPRPSVHPRP to RRIRQRPPRLPRPRPRPHSFPRP, the “shrunken log2 fold change” value rises from -0.233 to -0.00144.

First: RRIRDRPPRLPRPRPRPIRKPRP
Second: RRIRERPPRLPRPRPRPDGQPRP
The “shrunken log2 fold change” value of the first is higher: 0.0201 for the first, -0.388 for the second.

RRIRERPPRLPRPRPRPVGCPRP and RRIRVRPPRLPRPRPRPVAPPRP are within 0.2 log units of each other in “shrunken log2 fold change” value: 0.168 for the first, 0.242 for the second.

RRIRCRPPRLPRPRPRPFWVPRP and RRIRYRPPRLPRPRPRPEKLPRP are within 0.2 log units of each other in “shrunken log2 fold change” value: 0.0496 for the first, -0.034 for the second.

Going from RRIRKRPPRLPRPRPRPCGPPRP to RRIRGRPPRLPRPRPRPALAPRP, the “shrunken log2 fold change” value rises from -0.0191 to 1.17.

RRIRSRPPRLPRPRPRPVKFPRP and RRIRRRPPRLPRPRPRPANTPRP are within 0.2 log units of each other in “shrunken log2 fold change” value: 0.0903 for the first, 0.0917 for the second.

RRIRPRPPRLPRPRPRPGMDPRP and RRIRYRPPRLPRPRPRPMRLPRP are within 0.2 log units of each other in “shrunken log2 fold change” value: -0.00631 for the first, -0.039 for the second.

RRIRNRPPRLPRPRPRPYDPPRP and RRIRHRPPRLPRPRPRPWWPPRP are within 0.2 log units of each other in “shrunken log2 fold change” value: -0.00192 for the first, -0.0995 for the second.

With RRIRHRPPRLPRPRPRPELNPRP the “shrunken log2 fold change” value was -0.098.
